Source: IntAct's records for PubMed 16287128

B1: Matrilin-3 (Homo sapiens), O15232 (parent)
chain: MPRPAPARRLPGLLLLLWPLLLLPSAAPDPVARPGFRRLETRGPGGSPGRRPSPAAPDGAPASGTSEPGRARGAGVCKSRPLDLVFIIDSSRSVRPLEFTKVKTFVSRIIDTLDIGPADTRVAVVNYASTVKIEFQLQAYTDKQSLKQAVGRITPLSTGTMSGLAIQTAMDEAFTVEAGAREPSSNIPKVAIIVTDGRPQDQVNEVAARAQASGIELYAVGVDRADMASLKMMASEPLEEHVFYVETYGVIEKLSSRFQETFCALDPCVLGTHQCQHVCISDGEGKHHCECSQGYTLNADKKTCSALDRCALNTHGCEHICVNDRSGSYHCECYEGYTLNEDRKTCSAQDKCALGTHGCQHICVNDRTGSHHCECYEGYTLNADKKTCSVRDKCALGSHGCQHICVSDGAASYHCDCYPGYTLNEDKKTCSATEEARRLVSTEDACGCEATLAFQDKVSSYLQRLNTKLDDILEKLKINEYGQIHR
partner: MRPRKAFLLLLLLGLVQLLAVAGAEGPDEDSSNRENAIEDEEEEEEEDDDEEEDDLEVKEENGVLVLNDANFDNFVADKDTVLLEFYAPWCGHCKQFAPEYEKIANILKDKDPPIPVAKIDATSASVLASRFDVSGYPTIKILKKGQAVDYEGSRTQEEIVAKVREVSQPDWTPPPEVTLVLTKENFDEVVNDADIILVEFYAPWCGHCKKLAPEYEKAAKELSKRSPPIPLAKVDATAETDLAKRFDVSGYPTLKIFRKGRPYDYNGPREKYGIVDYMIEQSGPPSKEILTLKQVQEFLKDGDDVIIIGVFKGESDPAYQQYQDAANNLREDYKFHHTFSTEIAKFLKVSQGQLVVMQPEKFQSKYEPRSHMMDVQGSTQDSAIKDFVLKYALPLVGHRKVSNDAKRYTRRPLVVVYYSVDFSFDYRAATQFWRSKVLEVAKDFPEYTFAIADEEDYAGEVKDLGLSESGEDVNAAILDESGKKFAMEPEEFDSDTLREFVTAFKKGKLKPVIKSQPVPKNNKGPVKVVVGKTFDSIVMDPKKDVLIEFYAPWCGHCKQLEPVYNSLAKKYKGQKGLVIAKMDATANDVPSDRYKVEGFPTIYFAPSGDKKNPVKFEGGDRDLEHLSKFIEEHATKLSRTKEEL

Variants of: B1
Conditions: with pdia4_human PDIA4, P13667

Row | Variant | effect of a mutation on the interaction
1 | R121W | causing an interaction
2 | V194D | causing an interaction
3 | A219D | causing an interaction
4 | E252K | with no effect
